# T1: human ANGPTL8 peptide (hANGPTL8 peptide, SEQ ID NO: 337) (human)
# T1 construct: also called N-terminal region ANGPTL8 peptide
# T1 peptide: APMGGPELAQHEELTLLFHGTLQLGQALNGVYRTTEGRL
# T2: peptide from the N-terminal coiled-coil region of human ANGPTL3 (hANGPTL3 peptide, SEQ ID NO: 338) (human)
# T2 construct: also called hANGPTL3 shift peptide
# T2 peptide: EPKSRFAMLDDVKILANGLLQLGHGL
# T3: peptide from the N-terminal coiled-coil region of human ANGPTL4 (hANGPTL4 peptide, SEQ ID NO: 339) (human)
# T3 peptide: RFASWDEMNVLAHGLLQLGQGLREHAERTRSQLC
# T4: human ANGPTL8 expressed with C-terminal mouse IgG2a Fc tag (hANGPTL8-mFc; SEQ ID NO: 340) (human)
# T4 construct: also called Angiopoietin-like protein 8
# T4 chain: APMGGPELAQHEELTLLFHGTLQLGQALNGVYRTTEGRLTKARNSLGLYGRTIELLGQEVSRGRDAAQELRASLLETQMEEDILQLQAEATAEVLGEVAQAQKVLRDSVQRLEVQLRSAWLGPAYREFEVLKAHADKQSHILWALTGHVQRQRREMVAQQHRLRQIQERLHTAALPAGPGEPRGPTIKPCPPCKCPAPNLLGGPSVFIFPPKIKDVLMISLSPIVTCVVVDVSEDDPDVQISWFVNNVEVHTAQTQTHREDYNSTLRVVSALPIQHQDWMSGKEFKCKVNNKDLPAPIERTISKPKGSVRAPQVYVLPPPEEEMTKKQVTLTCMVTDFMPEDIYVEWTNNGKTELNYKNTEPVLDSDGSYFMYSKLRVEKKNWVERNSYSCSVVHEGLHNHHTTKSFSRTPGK
# T5: monkey ANGPTL8 expressed with C-terminal mouse IgG2a Fc tag (MfANGPTL8-mFc; SEQ ID NO: 341) (cynomolgus monkey)
# T5 construct: also called cynomolgus monkey ANGPTL8
# T5 chain: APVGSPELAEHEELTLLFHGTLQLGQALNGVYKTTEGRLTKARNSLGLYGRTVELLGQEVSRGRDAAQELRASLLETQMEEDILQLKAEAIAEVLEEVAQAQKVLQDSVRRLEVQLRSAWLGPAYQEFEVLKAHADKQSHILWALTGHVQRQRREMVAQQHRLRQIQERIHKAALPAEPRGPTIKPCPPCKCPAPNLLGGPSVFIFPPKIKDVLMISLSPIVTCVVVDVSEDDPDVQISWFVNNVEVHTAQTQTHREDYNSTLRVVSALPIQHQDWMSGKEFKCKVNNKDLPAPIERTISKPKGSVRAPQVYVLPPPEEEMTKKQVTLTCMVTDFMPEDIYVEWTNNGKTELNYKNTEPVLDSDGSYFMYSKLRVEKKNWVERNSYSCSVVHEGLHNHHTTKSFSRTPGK
# B1: H4H15334P (antibody, human IgG4, V domains shown)
# VH: QVQLQESGPGLVKPSQTLSLTCTVSGGSINSGGYYWNWIRQHPGKGLEWIGYIYYSGSTYFNPSLKSRVTISIDTSKNQFSLKLSSVTAADTAVYYCAREGIYAFDYWGQGTLVTVSS
# VL: DIQMTQSPSSLSASVGDRVTITCRASQGIRNDLGWYQQKPGKAPKRLIYSASSLQSGVPSRFGGSGSGTEFTLTISSLQPEDFATYYCLQHNSYPWTFGQGTKVEIK
# notes: H4H prefix: human IgG4 Fc
# B2: H4H15323P (antibody, human IgG4, V domains shown)
# VH: EVQLVESGGGLVQPGGSLRLSCAASGFTFSSYAMTWVRQAPGKGLEWVSAISGSGGSTYYTDSVKGRFTLSRDNSKNTLYLQMNSLRAEDTAVYYCAKSDYSNTIYWYYGMDVWGQGTTVTVSS
# VL: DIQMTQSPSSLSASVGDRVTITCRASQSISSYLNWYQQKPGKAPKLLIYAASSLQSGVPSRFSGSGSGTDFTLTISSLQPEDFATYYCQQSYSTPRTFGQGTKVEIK
# notes: H4H prefix: human IgG4 Fc
# B3: H4H15319P (antibody, human IgG4, V domains shown)
# VH: EVQLVESGGGVVRPGGSLRLSCAASGFTVDDYDMSWVRQTPGKGLEWISGINWNGGNTGYADSVKGRFIISRDSAKNSLFLQMNSLRAEDTALYHCWGAIGAFDIWGQGTMVTVSS
# VL: DIVMTQSPLSSPVTLGQPASISCRSSQSLVHSDGGTYLSWLQQRPGQPPRLLIYKIFNRFSGVPDRFSGSGAGTDFTLRISRVEAEDVGVYYCMQTTQFPLTFGGGTKVEIK
# notes: H4H prefix: human IgG4 Fc
# B4: H4H15369P2 (antibody, human IgG4, V domains shown)
# VH: EVQLVESGGGLVQPGGSLRLSCVGTGFTFSNYAMSWVRQAPGKGLEWVSGISGRSSGTFYADSVKGRFTISRDNSQNTLYLQMNSLGAEDTAVYYCAKVSRYNWDYVPFDFWGQGTLVTVSS
# VL: not shown
# notes: H4H prefix: human IgG4 Fc
# B5: H4H15346P (antibody, human IgG4, V domains shown)
# VH: EVQLVESGGGLVQPGGSLRLSCAASGFTFSNYAMSWVRQAPGKGLEWVSTISDTGGSTYYADSVKGRFALSRDNSRNTLYLQMNSLRAEDTAVYYCAKEGPPDYWGQGTLVTVSS
# VL: EIVLTQSPATLSLSPGERATLSCRTSQSVSIYLAWYQQKPGQAPRLLIYDASKRATGIPARFSGRGSGTDFTLTISSLEPEDFAVYYCQQRSNWPLTFGQGTRLEIK
# notes: H4H prefix: human IgG4 Fc
# B6: H4H15343P (antibody, human IgG4, V domains shown)
# VH: QVQLVESGGGVVQPGRSLRLSCAASGFTFSSYGMHWVRQAPGKGLEWVAVISYAGSNKYYADSVKGRFTISRDNSKNTLYLQMNGLRAEDTAVYYCAKDPYGDYEGVLDYWGQGTLVTVSS
# VL: DIQMTQSPSSLSASVGDRVTITCQASQDISNYLNWYQQKPGKAPKLLIYDASNLETGVPSRFSGSGSGTDFTFTISSLQPEDIATYYCQQYDHLPITFGQGTRLEIK
# notes: H4H prefix: human IgG4 Fc
# Molecular target: T1, human ANGPTL8 peptide (hANGPTL8 …)
# Assay: SPR, captured mAb, 500 nM peptide, 25C
# Procedure: (§1) The assay utilized a format where ANGPTL8 antibodies were captured on the sensor surface and peptides were injected over the antibody surface. Peptides from the N-terminal coiled-coil region of human ANGPTL3 (hANGPTL3 peptide, SEQ ID NO: 338) and human ANGPTL4 (hANGPTL4 peptide, SEQ ID NO: 339) were also included as controls. Also included was a control antibody (H4H268P from US2011/0159015A1) that binds to the ANGPTL4 peptide and a negative isotype control antibody. All binding studies were performed in 10 mM HEPES pH 7.4, 150 mM NaCl, 3 mM EDTA, and 0.05% v/v Surfactant Tween-20 (HBS-ET running buffer) at 25° C. The HCA sensor surface was derivatized via amine coupling to a monoclonal mouse anti-human Fc antibody (GE, # BR-1008-39), and to this surface was captured approximately 1000 RU of each ANGPTL8 antibody or control antibody. Peptide stock solutions were diluted in HBS-ET running buffer to 500 nM and injected over the antibody-captured surfaces for 4 minutes at a flow rate of 30 μL/minute followed by the dissociation of bound peptide in HBS-ET running buffer for 10 minutes.
# (§2) Dissociative half-lives (t½) were calculated from kd as: […]
Binder,500 nM hANGPTL8 peptide Bound (RU),binding result
B1,0,no binding (tested: <9 RU at 500 nM peptide)
B2,0,no binding (tested: <9 RU at 500 nM peptide)
B3,0,no binding (tested: <9 RU at 500 nM peptide)
B4,0,no binding (tested: <9 RU at 500 nM peptide)
B5,0,no binding (tested: <9 RU at 500 nM peptide)
B6,0,no binding (tested: <9 RU at 500 nM peptide)

# Molecular target: T2, peptide from the N-terminal coiled-coil …
# Assay: SPR, captured mAb, 500 nM peptide, 25C
# Procedure: as §1, §2
Binder,500 nM hANGPTL3 peptide Bound (RU),binding result
B1,0,no binding (tested: <9 RU at 500 nM peptide)
B2,0,no binding (tested: <9 RU at 500 nM peptide)
B3,0,no binding (tested: <9 RU at 500 nM peptide)
B4,0,no binding (tested: <9 RU at 500 nM peptide)
B5,0,no binding (tested: <9 RU at 500 nM peptide)
B6,0,no binding (tested: <9 RU at 500 nM peptide)

# Molecular target: T3, peptide from the N-terminal coiled-coil …
# Assay: SPR, captured mAb, 500 nM peptide, 25C
# Procedure: as §1, §2
Binder,500 nM hAngPTL4 peptide Bound (RU),binding result
B1,1,no binding (tested: <9 RU at 500 nM peptide)
B2,0,no binding (tested: <9 RU at 500 nM peptide)
B3,0,no binding (tested: <9 RU at 500 nM peptide)
B4,0,no binding (tested: <9 RU at 500 nM peptide)
B5,0,no binding (tested: <9 RU at 500 nM peptide)
B6,0,no binding (tested: <9 RU at 500 nM peptide)

# Molecular target: T6, anti-mFc (AMC) Octet biosensor, blank
# T6 construct: Sensor without captured protein, used as blank; also called Blank AMC Sensor
# Assay: BLI Octet, blank AMC sensor, 100 nM mAb, 25C
# Procedure: (§3) Binding of ANGPTL8 antibodies to human and monkey ANGPTL8 proteins was investigated using Bio-layer Interferometry with an Octet HTX biosensor platform (ForteBio, A Division of Pall Life Sciences). All experiments were performed at 25° C. in 10 mM HEPES pH 7.4, 150 mM NaCl, 0.05% v/v Surfactant Tween-20, and 1 mg/ml BSA with the reaction multiwell plate agitated at 1000 rpm. Approximately 1.6 nm of human ANGPTL8 produced with a C-terminal mouse IgG2a Fc tag (hANGPTL8-mFc; SEQ ID NO: 340) or cynomolgus monkey ANGPTL8 produced with a C-terminal mouse IgG2a Fc tag (MfANGPTL8-mFc; SEQ ID NO: 341) was captured onto anti-mFc (AMC) Octet biosensors by submerging the sensors into wells containing 10 μg/mL of each protein for 4 minutes. Under the same conditions a negative control protein with the same mFc tag (hLDLR-mFc) was also coupled to the AMC sensor. All four sensors, […] and one blank, were then submerged into wells containing 100 nM of different ANGPTL8 monoclonal antibodies or an isotype control for 4 minutes.
row,Binder,mAb Binding Response (nm)
1,B1,0.03
2,B2,0
3,B3,0
4,B4,0.01
5,B5,-0.01
6,B6,0.01

# Molecular target: T4, human ANGPTL8 expressed with C-terminal …
# Assay: BLI Octet, captured antigen, 100 nM mAb, 25C
# Procedure: as §3
row,Binder,mAb Binding Response (nm)
1,B1,0.05
2,B2,0.18
3,B3,0.22
4,B4,0.14
5,B5,0.07
6,B6,0.17

# Molecular target: T5, monkey ANGPTL8 expressed with …
# Assay: BLI Octet, captured antigen, 100 nM mAb, 25C
# Procedure: as §3
row,Binder,mAb Binding Response (nm)
1,B1,0.01
2,B2,0.15
3,B3,0.26
4,B4,0.17
5,B5,0.01
6,B6,0.2

# Molecular target: T7, negative control protein with the same mFc tag (hLDLR-mFc) (human; mouse, UniProt P01130 22-788, limits assumed)
# T7 construct: also called Irrelevant control; not shown: mouse IgG2a Fc tag (same mFc tag as hANGPTL8-mFc)
# Assay: BLI Octet, captured antigen, 100 nM mAb, 25C
# Procedure: as §3
# T7 sequence (P01130 22-788 limits assumed): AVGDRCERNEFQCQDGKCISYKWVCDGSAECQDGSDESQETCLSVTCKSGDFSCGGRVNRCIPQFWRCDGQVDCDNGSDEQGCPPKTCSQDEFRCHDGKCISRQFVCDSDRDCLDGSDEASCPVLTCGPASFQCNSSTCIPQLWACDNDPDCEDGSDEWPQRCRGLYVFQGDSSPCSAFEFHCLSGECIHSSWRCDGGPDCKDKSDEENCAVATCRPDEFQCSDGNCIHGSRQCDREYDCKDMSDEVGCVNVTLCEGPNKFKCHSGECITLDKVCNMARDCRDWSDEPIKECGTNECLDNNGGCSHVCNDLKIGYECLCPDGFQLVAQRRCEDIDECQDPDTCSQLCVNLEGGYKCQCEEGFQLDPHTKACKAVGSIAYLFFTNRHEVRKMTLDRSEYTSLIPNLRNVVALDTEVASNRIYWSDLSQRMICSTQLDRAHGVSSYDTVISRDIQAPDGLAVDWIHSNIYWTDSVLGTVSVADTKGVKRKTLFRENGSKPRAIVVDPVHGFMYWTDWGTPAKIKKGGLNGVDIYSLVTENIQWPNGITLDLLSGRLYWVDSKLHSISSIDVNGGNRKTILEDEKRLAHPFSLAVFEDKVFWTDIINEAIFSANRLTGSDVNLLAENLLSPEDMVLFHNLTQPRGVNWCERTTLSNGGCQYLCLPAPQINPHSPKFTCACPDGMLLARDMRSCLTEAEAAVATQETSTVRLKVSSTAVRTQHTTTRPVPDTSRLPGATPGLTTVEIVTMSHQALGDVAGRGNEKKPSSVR
row,Binder,mAb Binding Response (nm)
1,B1,0
2,B2,0
3,B3,-0.01
4,B4,0
5,B5,0
6,B6,-0.01

# Source: US20170037124A1 (Regeneron, published 2017)
